Assay results reported in US20090022663A1.

Target: 161P2F10B variant 1 (human 161P2F10B), on the cell surface (human) (UniProt O14638)
Assay: FACS titration on KU-812 cells, one site binding fit

B1: H16-1.92.1.1 (antibody, part only; not given: light chain, V domains shown, part only)
VH: EVLLVESGPGLVKPSETLSLTCTVSGGSISSSSYFWGWIRQPPGKGLEWIGSIYYSGNTYYNPSLKSRVTISVDTSKNRFSLKLSSVTAADTAVYCCASATTVTTAFDIWGQGTMVTVSSASTKGPSVFPLAPSS
Kd: 4.73 nM
